In patent US11344606B2, “Parathyroid hormone fusion polypeptide” (University of Sheffield, priority 2017, dated 2022):
Blank lines part the entries; values can stand above or below the molecule they belong to.

Legend:
[1] = tested on: UMR-106 cells (PTH responsive cell line); test: In vitro induction of cAMP in UMR-106 cells (cAMP ELISA); type: cell-based, rat
Protocol: FIG. 3: In Vitro Bioactivity of 14A1 and 14A2 proteins. Purified proteins were tested for their ability to stimulate cAMP production from the PTH responsive cell line, UMR-106 (rat osteoblastic like cell line). Cells were stimulated for 15 minutes in the presence of test molecules and cAMP levels measured from cell lysates using a cAMP specific Elisa. […] Data is presented as pmol cAMP/ml+/−Standard deviation;
FIG. 29A: In vitro induction of cAMP. […] Cells were lysed and cAMP levels measured using an R & D systems Parameter cAMP Elisa. Data are presented as log pmol cAMP/ml±SD. […] Average of n=1 experiment carried out in duplicate.
Purified proteins were tested for their ability to stimulate cAMP production from the PTH responsive cell line, UMR-106 (rat osteoblastic like cell line). Cells were stimulated for 15 minutes in the presence of test molecules and cAMP levels measured from cell lysates using a cAMP specific Elisa (R&D systems).

UMR-106 cells = test: Dual Luciferase Reporter Assay for cAMP activity (pGL4.29/CRE/Luc2) in UMR-106 cells; type: cell-based, rat; conditions: FIG. 29D
Source text: Cells were lysed and Luciferase activity measured using the Promega Dual Luciferase Assay kit. Data are presented as fold induction of control±SD. […] Average of triplicate values. […] Representative of 3 separate experiments.
Cells were lysed and Luciferase activity measured using the Promega Dual Luciferase Assay kit. Data are presented as fold induction of control±SD.
FIG. 29D: Determination of EC50 values for PTH & PTH fusions using the Dual Luciferase Reporter Assay.

[2] = 500 nM PTH fusion, 15 minutes at 37° C./5% CO2, FIG. 29A, n=1 experiment in duplicate

Molecule: CC[C@H](C)[C@H](NC(=O)[C@H](CCC(=O)O)NC(=O)[C@H](CO)NC(=O)[C@@H](NC(=O)[C@@H](N)CO)C(C)C)C(=O)N[C@@H](CCC(N)=O)C(=O)N[C@@H](CC(C)C)C(=O)N[C@@H](CCSC)C(=O)N[C@@H](Cc1c[nH]cn1)C(=O)N[C@@H](CC(N)=O)C(=O)N[C@@H](CC(C)C)C(=O)NCC(=O)N[C@@H](CCCCN)C(=O)N[C@@H](Cc1c[nH]cn1)C(=O)N[C@@H](CC(C)C)C(=O)N[C@@H](CC(N)=O)C(=O)N[C@@H](CO)C(=O)N[C@@H](CCSC)C(=O)N[C@@H](CCC(=O)O)C(=O)N[C@@H](CCCNC(=N)N)C(=O)N[C@H](C(=O)N[C@@H](CCC(=O)O)C(=O)N[C@@H](Cc1c[nH]c2ccccc12)C(=O)N[C@@H](CC(C)C)C(=O)N[C@@H](CCCNC(=N)N)C(=O)N[C@@H](CCCCN)C(=O)N[C@@H](CCCCN)C(=O)N[C@@H](CC(C)C)C(=O)N[C@@H](CCC(N)=O)C(=O)N[C@@H](CC(=O)O)C(=O)N[C@H](C(=O)N[C@@H](Cc1c[nH]cn1)C(=O)N[C@@H](CC(N)=O)C(=O)N[C@@H](Cc1ccccc1)C(=O)O)C(C)C)C(C)C [PTH 1-34, reference compound]
- cAMP levels (mean±SD) ([1]; 100 nM human PTH 1-34, 15 minutes at 37° C./5% CO2, FIG. 29A): 2551±186 pmol cAMP/ml

- fold by which PTH is more potent than the fusion (EC50 ratio) (UMR-106 cells): 28 fold
B1: 14A3b: GHss-PTH (1-34)-(g4s)4-PTHrExt-(g4s)4-GHbp, SEQ ID NO: 14 (protein)
chain: MATGSRTSLLLAFGLLCLPWLQEGSASVSEIQLMHNLGKHLNSMERVEWLRKKLQDVHNFGGGGSGGGGSGGGGSGGGGSDDVMTKEEQIFLLHRAQAQCEKRLKEVLQRPASIMESDKGWTSASTSGKPRKDKASGKLYPESEEDKEAPTGSRYRGRPCLPEWDHILCWPLGAPGEVVAVPCPDYIYDFNHKGHAYRRCDRNGSWELVPGHNRTWANYSECVKFLTNETREREVFDRLGGGGSGGGGSGGGGSGGGGSFSGSEATAAILSRAPWSLQSVNPGLKTNSSKEPKFTKCRSPERETFSCHWTDEVHHGTKNLGPIQLFYTRRNTQEWTQEWKECPDYVSAGENSCYFNSSFTSIAIPYCIKLTSNGGTVDEKCFSVDEIVQPDPPIALNWTLLNVSLTGIHADIQVRWEAPRNADIQKGWMVLEYELQYKEVNETKWKMMDPILTTSVPVYSLKVDKEYEVRVRSKQRNSGNYGEFSEVLYVTLPQMSQ
modifications: Fusion proteins
- cAMP levels (mean±SD) [1, 2]: 25±0.95 pmol cAMP/ml

- fold by which PTH is more potent than the fusion (EC50 ratio) (UMR-106 cells): ~18 fold
B2: 14A2c: PTHss-pp-PTH (1-34)-(g4s)4-PTHrExt-(g4s)4-GHbp, SEQ ID NO: 13 (protein)
chain: MIPAKDMAKVMIVMLAICFLTKSDGKSVKKRSVSEIQLMHNLGKHLNSMERVEWLRKKLQDVHNFGGGGSGGGGSGGGGSGGGGSDDVMTKEEQIFLLHRAQAQCEKRLKEVLQRPASIMESDKGWTSASTSGKPRKDKASGKLYPESEEDKEAPTGSRYRGRPCLPEWDHILCWPLGAPGEVVAVPCPDYIYDFNHKGHAYRRCDRNGSWELVPGHNRTWANYSECVKFLTNETREREVFDRLGGGGSGGGGSGGGGSGGGGSFSGSEATAAILSRAPWSLQSVNPGLKTNSSKEPKFTKCRSPERETFSCHWTDEVHHGTKNLGPIQLFYTRRNTQEWTQEWKECPDYVSAGENSCYFNSSFTSIAIPYCIKLTSNGGTVDEKCFSVDEIVQPDPPIALNWTLLNVSLTGIHADIQVRWEAPRNADIQKGWMVLEYELQYKEVNETKWKMMDPILTTSVPVYSLKVDKEYEVRVRSKQRNSGNYGEFSEVLYVTLPQMSQ
modifications: Fusion proteins
- cAMP levels (mean±SD) [1, 2]: 264±12 pmol cAMP/ml
